Measured values published in IntAct's records for PubMed 15377662.

B1: Ras-related protein Rab-5A (Homo sapiens), P20339 (parent)
chain: MASRGATRPNGPNTGNKICQFKLVLLGESAVGKSSLVLRFVKGQFHEFQESTIGAAFLTQTVCLDDTTVKFEIWDTAGQERYHSLAPMYYRGAQAAIVVYDITNEESFARAKNWVKELQRQASPNIVIALSGNKADLANKRAVDFQEAQSYADDNSLLFMETSAKTSMNVNEIFMAIAKKLPKNEPQNPGANSARGRGVDLTEPTQPTRNQCCSN

Variants of: B1
Details: with p85a_bovin PIK3R1, P23727
Chain of p85a_bovin PIK3R1, P23727 (P23727 whole entry): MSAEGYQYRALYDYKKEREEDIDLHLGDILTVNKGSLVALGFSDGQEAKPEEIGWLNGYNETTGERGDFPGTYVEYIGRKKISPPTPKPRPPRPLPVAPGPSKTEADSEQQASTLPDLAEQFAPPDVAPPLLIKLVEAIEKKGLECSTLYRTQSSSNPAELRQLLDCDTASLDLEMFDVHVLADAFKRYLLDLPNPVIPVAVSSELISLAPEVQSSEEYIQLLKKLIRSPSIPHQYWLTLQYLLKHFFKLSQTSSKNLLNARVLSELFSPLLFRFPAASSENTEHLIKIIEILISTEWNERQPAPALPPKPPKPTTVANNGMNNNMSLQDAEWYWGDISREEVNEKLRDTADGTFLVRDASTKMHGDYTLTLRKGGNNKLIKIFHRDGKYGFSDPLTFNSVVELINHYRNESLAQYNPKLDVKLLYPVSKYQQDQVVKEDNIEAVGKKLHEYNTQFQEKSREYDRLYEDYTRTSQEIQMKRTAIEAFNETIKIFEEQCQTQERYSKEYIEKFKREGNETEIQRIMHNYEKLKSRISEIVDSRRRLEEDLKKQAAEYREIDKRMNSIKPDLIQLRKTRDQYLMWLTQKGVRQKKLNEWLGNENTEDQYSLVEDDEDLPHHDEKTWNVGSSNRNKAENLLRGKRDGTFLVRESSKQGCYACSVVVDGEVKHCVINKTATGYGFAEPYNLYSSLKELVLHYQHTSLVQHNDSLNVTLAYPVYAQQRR

Row | effect of a mutation on the interaction | Variant
1 | disrupting interaction | MASRGATRPNGPNTGNKICQFKLVLLGESAVGKNSLVLRFVKGQFHEFQESTIGAAFLTQTVCLDDTTVKFEIWDTAGQERYHSLAPMYYRGAQAAIVVYDITNEESFARAKNWVKELQRQASPNIVIALSGNKADLANKRAVDFQEAQSYADDNSLLFMETSAKTSMNVNEIFMAIAKKLPKNEPQNPGANSARGRGVDLTEPTQPTRNQCCSN [S34N]

Variants of: B1
Details: with p85a_bovin PIK3R1, P23727
Remark: another data set of the same source

Row | effect of a mutation on the interaction | Variant
2 | decreasing interaction | MASRGATRPNGPNTGNKICQFKLVLLGESAVGKSSLVLRFVKGQFHEFQESTIGAAFLTQTVCLDDTTVKFEIWDTAGLERYHSLAPMYYRGAQAAIVVYDITNEESFARAKNWVKELQRQASPNIVIALSGNKADLANKRAVDFQEAQSYADDNSLLFMETSAKTSMNVNEIFMAIAKKLPKNEPQNPGANSARGRGVDLTEPTQPTRNQCCSN [Q79L]
